Key:
CaRF (E. coli) [1] = molecular target: T1, CaRF (E. coli) (Mus musculus (Methods); human per Fig 2 …, UniProt Q8VHI4 1-689); assay: EMSA; EMSA: 2 uL TNT or purified CaRF with 50 fmol 32P probe, 6% non-denaturing gel; competitors 50-150-fold excess, 30 min pre-incubation; buffer, pH and temperature not stated (cited ref 14); details: protein: recombinant; label: 32P when probe; blunt
T1 sequence: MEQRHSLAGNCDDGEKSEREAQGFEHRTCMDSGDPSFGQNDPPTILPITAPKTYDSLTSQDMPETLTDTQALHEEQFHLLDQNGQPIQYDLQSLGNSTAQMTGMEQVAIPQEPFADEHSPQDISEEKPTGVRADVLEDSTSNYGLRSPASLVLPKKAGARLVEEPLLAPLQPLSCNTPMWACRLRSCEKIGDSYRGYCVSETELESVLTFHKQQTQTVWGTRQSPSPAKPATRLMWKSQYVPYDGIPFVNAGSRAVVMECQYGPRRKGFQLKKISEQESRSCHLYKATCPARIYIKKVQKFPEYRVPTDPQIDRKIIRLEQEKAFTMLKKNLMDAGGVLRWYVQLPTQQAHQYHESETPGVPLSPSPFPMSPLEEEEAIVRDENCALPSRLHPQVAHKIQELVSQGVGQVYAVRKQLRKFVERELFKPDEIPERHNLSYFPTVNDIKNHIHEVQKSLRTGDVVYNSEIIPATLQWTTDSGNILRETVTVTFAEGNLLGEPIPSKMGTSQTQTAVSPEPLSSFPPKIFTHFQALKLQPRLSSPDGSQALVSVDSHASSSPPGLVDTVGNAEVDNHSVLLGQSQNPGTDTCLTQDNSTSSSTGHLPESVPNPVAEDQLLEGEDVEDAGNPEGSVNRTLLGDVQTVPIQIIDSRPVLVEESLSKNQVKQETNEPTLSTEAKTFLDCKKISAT

CaRF (TNT) [2] = molecular target: T2, CaRF (TNT) (Homo sapiens, UniProt Q8N187 1-725); assay: as above; details: protein: ivt; tags: N-terminal FLAG (DYKDDDDK); label: 32P when probe; blunt
T2 sequence: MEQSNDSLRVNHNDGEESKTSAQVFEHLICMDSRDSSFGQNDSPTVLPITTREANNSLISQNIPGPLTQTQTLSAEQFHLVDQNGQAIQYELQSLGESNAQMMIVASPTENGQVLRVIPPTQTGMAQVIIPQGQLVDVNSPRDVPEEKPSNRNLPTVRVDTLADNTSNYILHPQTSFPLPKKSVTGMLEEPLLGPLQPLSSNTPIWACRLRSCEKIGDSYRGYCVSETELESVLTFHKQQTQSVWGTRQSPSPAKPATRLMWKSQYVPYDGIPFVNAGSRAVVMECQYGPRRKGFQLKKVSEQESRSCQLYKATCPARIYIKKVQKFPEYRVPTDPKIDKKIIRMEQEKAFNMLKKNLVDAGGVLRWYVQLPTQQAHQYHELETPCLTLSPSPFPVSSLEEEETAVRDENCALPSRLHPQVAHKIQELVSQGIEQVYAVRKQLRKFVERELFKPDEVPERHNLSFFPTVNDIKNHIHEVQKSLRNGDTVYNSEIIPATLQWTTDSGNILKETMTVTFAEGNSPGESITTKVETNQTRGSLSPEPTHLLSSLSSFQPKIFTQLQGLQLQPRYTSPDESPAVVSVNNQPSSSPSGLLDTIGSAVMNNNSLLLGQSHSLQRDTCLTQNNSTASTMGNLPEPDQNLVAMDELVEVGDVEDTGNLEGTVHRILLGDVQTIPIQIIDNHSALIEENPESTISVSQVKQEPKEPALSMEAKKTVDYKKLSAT

CaRF (E. coli) [3] = molecular target: T1, CaRF (E. coli); assay: competition; CaRE1 probe, 50-fold excess; EMSA: 2 uL TNT or purified CaRF with 50 fmol 32P probe, 6% non-denaturing gel; competitors 50-150-fold excess, 30 min pre-incubation; buffer, pH and temperature not stated (cited ref 14); details: protein: recombinant; blunt
CaRF (TNT) [4] = molecular target: T2, CaRF (TNT); assay: as above; details: protein: ivt; tags: N-terminal FLAG (DYKDDDDK); blunt
[5] = molecular target: T3, recombinant CaRF (Figs 5 and 6) (UniProt Q8VHI4 1-689); assay: competition; camCaRE probe, 50-100-fold excess; EMSA: 2 uL TNT or purified CaRF with 50 fmol 32P probe, 6% non-denaturing gel; competitors 50-150-fold excess, 30 min pre-incubation; buffer, pH and temperature not stated (cited ref 14); details: protein: recombinant; blunt
T3 sequence: T1 sequence

[6] = molecular target: T3, recombinant CaRF (Figs 5 and 6); assay: competition; cCaRE probe, 100-fold excess; higher affinity than CaRF1; EMSA: 2 uL TNT or purified CaRF with 50 fmol 32P probe, 6% non-denaturing gel; competitors 50-150-fold excess, 30 min pre-incubation; buffer, pH and temperature not stated (cited ref 14); details: protein: recombinant; blunt
[7] = molecular target: T3, recombinant CaRF (Figs 5 and 6); assay: EMSA; EMSA: 2 uL TNT or purified CaRF with 50 fmol 32P probe, 6% non-denaturing gel; competitors 50-150-fold excess, 30 min pre-incubation; buffer, pH and temperature not stated (cited ref 14); details: protein: recombinant; label: 32P when probe; blunt

B1: CaRE1 (dsDNA)
DNA 1: GAGTGTCTATTTCGAGGCAGAGGAGG
DNA 2: CCTCCTCTGCCTCGAAATAGACACTC
- binding result (CaRF (E. coli) [1]): binds
- binding result (CaRF (TNT) [2]): binds

B2: mCaRE1 (mCaRE) (dsDNA)
DNA 1: GAGTGTCTTCCGCCAGGCAGAGGAGG
DNA 2: CCTCCTCTGCCTGGCGGAAGACACTC
- binding result (CaRF (E. coli) [3]): no binding
- binding result (CaRF (TNT) [4]): no binding
- binding result [5]: no binding

B3: CaRF2 (dsDNA)
DNA 1: TGAGTAGTCTCGTTTTGAATTTTCTCC
DNA 2: GGAGAAAATTCAAAACGAGACTACTCA
- binding result [6]: binds

B4: camCaRE (dsDNA)
DNA 1: TCAAAGCGAGGCAGA
DNA 2: TCTGCCTCGCTTTGA
- binding result [7]: binds
